# Test results: US20070293656A1, “COLLAGEN BINDING PEPTIDES” (Epix Pharmaceuticals, Inc., priority 2005, published 2007)
# Bridge positions count the residues as written; N and C are the ends. Ends that are not written are not given here. Glu‑DTPA‑Gd = N-terminal Glu-DTPA-Gd chelate (gadolinium DTPA complex on glutamic acid)
# Legend:
# human type I collagen = molecular target: T1, human type I collagen (Homo sapiens, UniProt P02452+P08123); test: MR phantom study: T1 of samples in human collagen gel; type: physicochemical; settings: in 7.5 μM human collagen gel; 10 μM Compound ID 1022; 0.47 Tesla, 37° C.
# T1 construct: Acid soluble human collagen extracted from placenta; purchased Sigma C7774 (lot #083K375); host or cells: human placenta
# Method: Acid soluble human collagen type I extracted from placenta (Sigma, cat #C7774, lot #083K375) was dissolved in 15 mM HCl (3.5 mg/mL) by vortexing and gently shaking for 3-4 hours at 4° C. The acid soluble collagen was dialyzed against PBS (pH 7.4). Protein concentration was determined by the BCA method (Pierce, Cat #23225) using bovine collagen (Vitrogen, cat #FXP-019) as a reference standard. The final collagen concentration for the stock solution was 9 μM.
# (§1) Samples: • 1. […] Sample prepared as sample 2, but centrifuged to separate insoluble rat collagen gel • 5. Sample prepared as sample 3, but centrifuged to separate insoluble human collagen gel • 6. 27 μM GdDTPA solution in PBS, pH 7.4 • 7. 27 μM GdDTPA in a solution of 5.0 μM rat type I collagen in 10 mM phosphate buffer, pH 5 incubated at 37° C. overnight to form a gel • 8. Sample prepared as in sample 7, but centrifuged to separate insoluble rat collagen gel • 9. Homogeneous gel of 5 μM rat collagen • 10. Homogeneous gel of 7.5 μM human collagen
# T1 was determined for samples 1, 2, 3, 6, 7, 9, 10 at 0.47 Tesla using a Bruker NMS120 minispec NMR analyzer operating at 37° C.
# rat type I collagen = molecular target: T2, rat type I collagen (Rattus norvegicus, UniProt P02454+P02466); test: MR phantom imaging of collagen gel samples at 4.7 T; settings: centrifuged samples 4 and 8, 4.7 T
# T2 construct: Rat collagen (acid soluble, type I, rat tail); purchased Upstate USA, Inc 08-115; host or cells: rat tail
# Method: as §1
# Samples for imaging were placed in glass tubes that were in turn placed in tubes containing water. Images were acquired at 4.7 T on a Bruker Biospec Imager using a Multi-Slice Multi-Echo Method with variable Relaxation Delay (MSMEVTR) experiment. The spin echo time and the relaxation delay were set to TE=11.2 ms and TR=500 ms, respectively with a flip angle of 30°. Images were acquired of sample 2, sample 4, sample 7, and sample 8. […] Sample 7 and 8 show uniform signal intensity.
# T2 sequence (P02454 152-1207 limits assumed): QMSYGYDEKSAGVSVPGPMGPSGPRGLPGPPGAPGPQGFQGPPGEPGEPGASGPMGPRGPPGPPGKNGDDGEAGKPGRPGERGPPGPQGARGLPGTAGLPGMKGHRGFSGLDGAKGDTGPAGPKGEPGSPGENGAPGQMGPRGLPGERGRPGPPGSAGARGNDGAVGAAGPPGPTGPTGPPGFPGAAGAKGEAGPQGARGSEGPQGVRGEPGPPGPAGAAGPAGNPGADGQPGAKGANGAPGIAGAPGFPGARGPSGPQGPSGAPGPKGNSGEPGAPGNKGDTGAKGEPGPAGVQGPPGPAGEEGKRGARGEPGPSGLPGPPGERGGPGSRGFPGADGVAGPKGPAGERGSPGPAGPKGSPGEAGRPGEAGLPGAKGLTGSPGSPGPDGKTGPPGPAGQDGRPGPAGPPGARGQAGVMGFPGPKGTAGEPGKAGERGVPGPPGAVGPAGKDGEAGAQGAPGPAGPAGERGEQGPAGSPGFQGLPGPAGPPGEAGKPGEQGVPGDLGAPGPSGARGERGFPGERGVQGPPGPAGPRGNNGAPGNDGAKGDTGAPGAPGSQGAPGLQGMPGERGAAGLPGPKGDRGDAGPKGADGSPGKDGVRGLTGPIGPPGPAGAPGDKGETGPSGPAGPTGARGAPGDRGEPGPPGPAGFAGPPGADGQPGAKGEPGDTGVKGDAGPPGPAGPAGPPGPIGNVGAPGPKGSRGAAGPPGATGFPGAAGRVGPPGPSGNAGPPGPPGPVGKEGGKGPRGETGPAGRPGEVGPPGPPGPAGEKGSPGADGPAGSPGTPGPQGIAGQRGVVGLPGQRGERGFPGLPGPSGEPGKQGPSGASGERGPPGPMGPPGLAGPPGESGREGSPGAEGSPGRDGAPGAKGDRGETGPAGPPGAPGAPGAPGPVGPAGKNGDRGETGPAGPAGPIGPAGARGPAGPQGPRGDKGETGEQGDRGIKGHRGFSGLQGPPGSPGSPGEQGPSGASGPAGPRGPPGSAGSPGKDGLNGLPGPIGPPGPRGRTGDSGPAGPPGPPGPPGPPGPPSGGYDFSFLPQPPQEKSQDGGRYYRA
# T2 sequence (P02466 86-1125 limits assumed): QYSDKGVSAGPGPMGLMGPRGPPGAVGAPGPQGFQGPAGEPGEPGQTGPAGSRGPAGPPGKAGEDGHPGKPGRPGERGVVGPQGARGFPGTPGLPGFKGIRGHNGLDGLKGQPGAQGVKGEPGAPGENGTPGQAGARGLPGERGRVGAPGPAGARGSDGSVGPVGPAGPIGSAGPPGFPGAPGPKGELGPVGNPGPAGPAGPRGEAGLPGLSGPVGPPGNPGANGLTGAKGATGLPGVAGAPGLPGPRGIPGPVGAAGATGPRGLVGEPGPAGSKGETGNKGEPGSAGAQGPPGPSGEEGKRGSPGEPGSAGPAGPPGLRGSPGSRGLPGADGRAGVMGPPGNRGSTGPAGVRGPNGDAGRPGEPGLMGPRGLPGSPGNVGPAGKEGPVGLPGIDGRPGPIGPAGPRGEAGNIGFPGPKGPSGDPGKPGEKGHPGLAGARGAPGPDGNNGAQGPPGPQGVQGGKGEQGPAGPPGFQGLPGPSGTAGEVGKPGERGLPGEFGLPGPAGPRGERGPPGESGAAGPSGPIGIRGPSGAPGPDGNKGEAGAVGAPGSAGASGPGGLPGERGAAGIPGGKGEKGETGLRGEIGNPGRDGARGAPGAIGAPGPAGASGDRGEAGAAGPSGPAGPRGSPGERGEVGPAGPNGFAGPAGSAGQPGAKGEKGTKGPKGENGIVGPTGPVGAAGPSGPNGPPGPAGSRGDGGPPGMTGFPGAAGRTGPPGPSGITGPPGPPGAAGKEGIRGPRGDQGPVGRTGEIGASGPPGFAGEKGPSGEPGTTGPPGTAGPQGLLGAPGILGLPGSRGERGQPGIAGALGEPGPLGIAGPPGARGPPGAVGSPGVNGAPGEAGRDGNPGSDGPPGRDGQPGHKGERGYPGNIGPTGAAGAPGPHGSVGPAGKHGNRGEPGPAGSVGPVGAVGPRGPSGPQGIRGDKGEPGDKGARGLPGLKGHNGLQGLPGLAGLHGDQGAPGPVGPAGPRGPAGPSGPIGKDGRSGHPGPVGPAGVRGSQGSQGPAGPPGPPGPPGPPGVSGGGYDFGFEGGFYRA
# T1 sequence (P02452 162-1218 limits assumed): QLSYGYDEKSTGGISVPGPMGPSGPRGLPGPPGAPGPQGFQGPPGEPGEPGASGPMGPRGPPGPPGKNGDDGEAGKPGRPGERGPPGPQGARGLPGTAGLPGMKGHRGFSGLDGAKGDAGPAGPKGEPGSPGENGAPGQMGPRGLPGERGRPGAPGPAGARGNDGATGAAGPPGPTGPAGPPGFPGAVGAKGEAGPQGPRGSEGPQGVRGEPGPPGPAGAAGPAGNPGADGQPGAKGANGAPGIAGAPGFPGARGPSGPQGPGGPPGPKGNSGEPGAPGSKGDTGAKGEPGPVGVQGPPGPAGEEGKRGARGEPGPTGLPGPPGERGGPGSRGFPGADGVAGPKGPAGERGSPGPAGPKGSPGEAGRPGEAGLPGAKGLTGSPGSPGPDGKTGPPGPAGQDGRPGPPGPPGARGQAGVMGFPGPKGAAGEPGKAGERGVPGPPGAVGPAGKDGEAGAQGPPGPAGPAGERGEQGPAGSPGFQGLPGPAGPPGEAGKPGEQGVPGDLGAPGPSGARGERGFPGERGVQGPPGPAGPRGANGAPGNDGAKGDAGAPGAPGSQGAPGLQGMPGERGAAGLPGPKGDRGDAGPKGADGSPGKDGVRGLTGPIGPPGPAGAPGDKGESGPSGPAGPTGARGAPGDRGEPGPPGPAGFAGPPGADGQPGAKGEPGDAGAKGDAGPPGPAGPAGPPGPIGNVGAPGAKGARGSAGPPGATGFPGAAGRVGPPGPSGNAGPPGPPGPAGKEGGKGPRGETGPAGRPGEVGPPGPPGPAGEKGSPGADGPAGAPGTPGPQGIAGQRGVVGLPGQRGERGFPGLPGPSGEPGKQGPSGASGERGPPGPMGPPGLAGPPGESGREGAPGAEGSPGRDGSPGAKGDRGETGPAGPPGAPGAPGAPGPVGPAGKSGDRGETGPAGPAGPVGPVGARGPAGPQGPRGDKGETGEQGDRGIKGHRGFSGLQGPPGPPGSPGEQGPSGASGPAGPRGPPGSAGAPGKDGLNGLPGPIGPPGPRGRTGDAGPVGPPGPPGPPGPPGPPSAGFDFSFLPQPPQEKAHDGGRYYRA
# T1 sequence (P08123 80-1119 limits assumed): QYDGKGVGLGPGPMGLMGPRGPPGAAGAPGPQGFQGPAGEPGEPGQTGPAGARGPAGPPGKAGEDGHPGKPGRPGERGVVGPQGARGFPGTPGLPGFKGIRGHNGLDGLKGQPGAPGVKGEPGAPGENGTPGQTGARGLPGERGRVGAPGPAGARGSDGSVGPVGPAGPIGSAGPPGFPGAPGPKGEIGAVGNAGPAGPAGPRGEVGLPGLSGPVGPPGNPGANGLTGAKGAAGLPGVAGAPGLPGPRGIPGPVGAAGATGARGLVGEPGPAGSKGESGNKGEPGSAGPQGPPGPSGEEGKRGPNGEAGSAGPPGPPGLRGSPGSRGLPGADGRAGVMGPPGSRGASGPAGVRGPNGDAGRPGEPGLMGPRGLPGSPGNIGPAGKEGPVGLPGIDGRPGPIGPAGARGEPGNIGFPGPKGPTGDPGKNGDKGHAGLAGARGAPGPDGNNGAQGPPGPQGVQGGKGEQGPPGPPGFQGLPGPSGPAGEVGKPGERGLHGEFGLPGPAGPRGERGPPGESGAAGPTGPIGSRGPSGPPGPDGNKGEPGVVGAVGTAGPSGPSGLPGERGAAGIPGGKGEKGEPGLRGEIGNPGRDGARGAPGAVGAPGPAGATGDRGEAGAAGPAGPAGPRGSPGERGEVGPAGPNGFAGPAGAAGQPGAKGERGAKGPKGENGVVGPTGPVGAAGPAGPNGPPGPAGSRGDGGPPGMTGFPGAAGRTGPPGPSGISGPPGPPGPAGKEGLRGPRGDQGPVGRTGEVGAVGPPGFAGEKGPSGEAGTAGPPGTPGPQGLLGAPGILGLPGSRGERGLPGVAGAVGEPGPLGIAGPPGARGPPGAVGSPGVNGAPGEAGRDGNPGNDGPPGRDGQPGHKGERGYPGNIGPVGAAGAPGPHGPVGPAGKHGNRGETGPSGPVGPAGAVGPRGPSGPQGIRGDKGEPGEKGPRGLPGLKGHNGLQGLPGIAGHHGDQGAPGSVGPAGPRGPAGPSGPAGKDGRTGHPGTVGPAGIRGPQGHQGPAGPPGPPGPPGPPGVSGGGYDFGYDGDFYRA
substance,measurement,setting,value
Glu-DTPA-Gd-G.Q.W.H.C.T.T.R.F.P.H.H.Y.C.L.Y.G-PEG-H ({Glu‑DTPA‑Gd}-GQWHCTTRFPHHYCLYG; disulfide 5-14 (inferred); not fully specified (C-terminus)) [SEQ ID NO: 186],T1,human type I collagen,2.100 s
same,signal of centrifuged collagen gel relative to supernatant,rat type I collagen,the pellet for sample 4 was much brighter than the supernatant
